Results: patent US20240360227A1

Legend:
[1] = target: Recombinant human his-tagged IGF R extracellular domain protein (human) (UniProt P08069); assay: SPR, Ab captured via anti-huIgG Fc, dissociation at pH 6
[2] = target: Recombinant human his-tagged IGF R extracellular domain protein (human) (UniProt P08069); assay: SPR, Ab captured via anti-huIgG Fc, pH 7.4

Row | Binder | Kd [1] [nM] | koff [1] [s⁻¹] | kon [1] [M⁻¹ s⁻¹] | Kd [2] [nM] | koff [2] [s⁻¹] | kon [2] [M⁻¹ s⁻¹]
1 | VRDN-02032 (antibody, V domains shown) VH: QVQLQESGPGLVKPSETLSLTCTVSGYSITGGYLWNWIRQPPGKGLEWIGYISYDGTNNYKPSLKDRVTISRDTSKNQFSLKLSSVTAADTAVYYCARYGRVFFDYWGQGTLVTVSS VL: DIVMTQSPLSLPVTPGEPASISCRSSHSIVHSNGNTYLQWYLQKPGQSPQLLIYKVSNRLYGVPDRFSGSGSGTDFTLKISRVEAEDVGVYYCFQGSHVPWTFGQGTKVEIK | 0.998 | 9.61e-05 | 96300 | 0.769 | 7.16e-05 | 93100
2 | VRDN-02046 (antibody, V domains shown) VH: QVQLQESGPGLVKPSETLSLTCTVSGYSITGGYLWNWIRQPPGKGLEWIGYISYDGTNNYKPSLKDRVTISRDTSKNQFSLKLSSVTAADTAVYYCARYGRVFFDYWGQGTLVTVSS VL: DIVMTQSPLSLPVTPGEPASISCRSSQSIVHSNGNTYLQWYLQKPGQSPQLLIYKVHNRLYGVPDRFSGSGSGTDFTLKISRVEAEDVGVYYCFQGSHVPWTFGQGTKVEIK | 1.29 | 0.000103 | 79900 | 0.569 | 5.23e-05 | 92000
3 | VRDN-02041 (antibody, V domains shown) VH: QVQLQESGPGLVKPSETLSLTCTVSGYSITGGYLWNWIRQPPGKGLEWIGYISYDGTNNYKPSLKDRVTISRDTSKNQFSLKLSSVTAADTAVYYCARYGRVFFDYWGQGTLVTVSS VL: DIVMTQSPLSLPVTPGEPASISCRSSQSIVHSNGNTHLQWYLQKPGQSPQLLIYKVSNRLYGVPDRFSGSGSGTDFTLKISRVEAEDVGVYYCFQGSHVPWTFGQGTKVEIK | 1.16 | 0.000102 | 87800 | 0.795 | 7.59e-05 | 95500
4 | VRDN-02036 (antibody, V domains shown) VH: QVQLQESGPGLVKPSETLSLTCTVSGYSITGGYLWNWIRQPPGKGLEWIGYISYDGTNNYKPSLKDRVTISRDTSKNQFSLKLSSVTAADTAVYYCARYGRVFFDYWGQGTLVTVSS VL: DIVMTQSPLSLPVTPGEPASISCRSSQSIVHHNGNTYLQWYLQKPGQSPQLLIYKVSNRLYGVPDRFSGSGSGTDFTLKISRVEAEDVGVYYCFQGSHVPWTFGQGTKVEIK | 1.08 | 0.000102 | 94200 | 0.444 | 4.42e-05 | 99500
5 | VRDN-02004 (antibody, V domains shown) VH: QVQLQESGPGLVKPSETLSLTCTVSGYSHTGGYLWNWIRQPPGKGLEWIGYISYDGTNNYKPSLKDRVTISRDTSKNQFSLKLSSVTAADTAVYYCARYGRVFFDYWGQGTLVTVSS VL: DIVMTQSPLSLPVTPGEPASISCRSSQSIVHSNGNTYLQWYLQKPGQSPQLLIYKVSNRLYGVPDRFSGSGSGTDFTLKISRVEAEDVGVYYCFQGSHVPWTFGQGTKVEIK | 6.19 | 0.000593 | 95700 | 7.78 | 0.000684 | 87800
6 | VRDN-02039 (antibody, V domains shown) VH: QVQLQESGPGLVKPSETLSLTCTVSGYSITGGYLWNWIRQPPGKGLEWIGYISYDGTNNYKPSLKDRVTISRDTSKNQFSLKLSSVTAADTAVYYCARYGRVFFDYWGQGTLVTVSS VL: DIVMTQSPLSLPVTPGEPASISCRSSQSIVHSNGHTYLQWYLQKPGQSPQLLIYKVSNRLYGVPDRFSGSGSGTDFTLKISRVEAEDVGVYYCFQGSHVPWTFGQGTKVEIK | 1.36 | 0.000109 | 79800 | 0.586 | 5.26e-05 | 89800
7 | VRDN-02035 (antibody, V domains shown) VH: QVQLQESGPGLVKPSETLSLTCTVSGYSITGGYLWNWIRQPPGKGLEWIGYISYDGTNNYKPSLKDRVTISRDTSKNQFSLKLSSVTAADTAVYYCARYGRVFFDYWGQGTLVTVSS VL: DIVMTQSPLSLPVTPGEPASISCRSSQSIHHSNGNTYLQWYLQKPGQSPQLLIYKVSNRLYGVPDRFSGSGSGTDFTLKISRVEAEDVGVYYCFQGSHVPWTFGQGTKVEIK | 1.22 | 0.000107 | 87600 | 0.646 | 6.32e-05 | 97800
8 | VRDN-02045 (antibody, V domains shown) VH: QVQLQESGPGLVKPSETLSLTCTVSGYSITGGYLWNWIRQPPGKGLEWIGYISYDGTNNYKPSLKDRVTISRDTSKNQFSLKLSSVTAADTAVYYCARYGRVFFDYWGQGTLVTVSS VL: DIVMTQSPLSLPVTPGEPASISCRSSQSIVHSNGNTYLQWYLQKPGQSPQLLIYKHSNRLYGVPDRFSGSGSGTDFTLKISRVEAEDVGVYYCFQGSHVPWTFGQGTKVEIK | 1.66 | 8.63e-05 | 51900 | 1.1 | 6.49e-05 | 59200
9 | VRDN-02044 (antibody, V domains shown) VH: QVQLQESGPGLVKPSETLSLTCTVSGYSITGGYLWNWIRQPPGKGLEWIGYISYDGTNNYKPSLKDRVTISRDTSKNQFSLKLSSVTAADTAVYYCARYGRVFFDYWGQGTLVTVSS VL: DIVMTQSPLSLPVTPGEPASISCRSSQSIVHSNGNTYLQWYLQKPGQSPQLLIYHVSNRLYGVPDRFSGSGSGTDFTLKISRVEAEDVGVYYCFQGSHVPWTFGQGTKVEIK | 0.759 | 6.27e-05 | 82600 | 0.551 | 4.69e-05 | 85200
10 | VRDN-02047 (antibody, V domains shown) VH: QVQLQESGPGLVKPSETLSLTCTVSGYSITGGYLWNWIRQPPGKGLEWIGYISYDGTNNYKPSLKDRVTISRDTSKNQFSLKLSSVTAADTAVYYCARYGRVFFDYWGQGTLVTVSS VL: DIVMTQSPLSLPVTPGEPASISCRSSQSIVHSNGNTYLQWYLQKPGQSPQLLIYKVSHRLYGVPDRFSGSGSGTDFTLKISRVEAEDVGVYYCFQGSHVPWTFGQGTKVEIK | 1.48 | 9.84e-05 | 66600 | 0.622 | 5.34e-05 | 85900
11 | VRDN-02042 (antibody, V domains shown) VH: QVQLQESGPGLVKPSETLSLTCTVSGYSITGGYLWNWIRQPPGKGLEWIGYISYDGTNNYKPSLKDRVTISRDTSKNQFSLKLSSVTAADTAVYYCARYGRVFFDYWGQGTLVTVSS VL: DIVMTQSPLSLPVTPGEPASISCRSSQSIVHSNGNTYHQWYLQKPGQSPQLLIYKVSNRLYGVPDRFSGSGSGTDFTLKISRVEAEDVGVYYCFQGSHVPWTFGQGTKVEIK | 1.08 | 0.000101 | 94100 | 0.704 | 7.31e-05 | 104000

Now from value to binder:

Row | Kd [1] [nM] | koff [1] [s⁻¹] | kon [1] [M⁻¹ s⁻¹] | Kd [2] [nM] | koff [2] [s⁻¹] | kon [2] [M⁻¹ s⁻¹] | Binder
12 | 1.44 | 0.000101 | 70000 | 0.844 | 6.43e-05 | 76200 | VRDN-02037 (antibody, V domains shown) VH: QVQLQESGPGLVKPSETLSLTCTVSGYSITGGYLWNWIRQPPGKGLEWIGYISYDGTNNYKPSLKDRVTISRDTSKNQFSLKLSSVTAADTAVYYCARYGRVFFDYWGQGTLVTVSS VL: DIVMTQSPLSLPVTPGEPASISCRSSQSIVHSHGNTYLQWYLQKPGQSPQLLIYKVSNRLYGVPDRFSGSGSGTDFTLKISRVEAEDVGVYYCFQGSHVPWTFGQGTKVEIK
13 | 1.31 | 0.000111 | 84800 | 0.649 | 5.36e-05 | 82600 | VRDN-02038 (antibody, V domains shown) VH: QVQLQESGPGLVKPSETLSLTCTVSGYSITGGYLWNWIRQPPGKGLEWIGYISYDGTNNYKPSLKDRVTISRDTSKNQFSLKLSSVTAADTAVYYCARYGRVFFDYWGQGTLVTVSS VL: DIVMTQSPLSLPVTPGEPASISCRSSQSIVHSNHNTYLQWYLQKPGQSPQLLIYKVSNRLYGVPDRFSGSGSGTDFTLKISRVEAEDVGVYYCFQGSHVPWTFGQGTKVEIK
14 | 1.19 | 0.00011 | 92700 | 0.822 | 8.1e-05 | 98500 | VRDN-02033 (antibody, V domains shown) VH: QVQLQESGPGLVKPSETLSLTCTVSGYSITGGYLWNWIRQPPGKGLEWIGYISYDGTNNYKPSLKDRVTISRDTSKNQFSLKLSSVTAADTAVYYCARYGRVFFDYWGQGTLVTVSS VL: DIVMTQSPLSLPVTPGEPASISCRSSQHIVHSNGNTYLQWYLQKPGQSPQLLIYKVSNRLYGVPDRFSGSGSGTDFTLKISRVEAEDVGVYYCFQGSHVPWTFGQGTKVEIK
15 | 1.04 | 9.07e-05 | 87000 | 1.22 | 0.000104 | 85400 | VRDN-02040 (antibody, V domains shown) VH: QVQLQESGPGLVKPSETLSLTCTVSGYSITGGYLWNWIRQPPGKGLEWIGYISYDGTNNYKPSLKDRVTISRDTSKNQFSLKLSSVTAADTAVYYCARYGRVFFDYWGQGTLVTVSS VL: DIVMTQSPLSLPVTPGEPASISCRSSQSIVHSNGNHYLQWYLQKPGQSPQLLIYKVSNRLYGVPDRFSGSGSGTDFTLKISRVEAEDVGVYYCFQGSHVPWTFGQGTKVEIK
16 | 1.13 | 9.08e-05 | 80400 | 0.746 | 6.22e-05 | 83400 | VRDN-02043 (antibody, V domains shown) VH: QVQLQESGPGLVKPSETLSLTCTVSGYSITGGYLWNWIRQPPGKGLEWIGYISYDGTNNYKPSLKDRVTISRDTSKNQFSLKLSSVTAADTAVYYCARYGRVFFDYWGQGTLVTVSS VL: DIVMTQSPLSLPVTPGEPASISCRSSQSIVHSNGNTYLHWYLQKPGQSPQLLIYKVSNRLYGVPDRFSGSGSGTDFTLKISRVEAEDVGVYYCFQGSHVPWTFGQGTKVEIK
17 | 1.26 | 0.000107 | 85000 | 1.03 | 0.000105 | 101000 | VRDN-02034 (antibody, V domains shown) VH: QVQLQESGPGLVKPSETLSLTCTVSGYSITGGYLWNWIRQPPGKGLEWIGYISYDGTNNYKPSLKDRVTISRDTSKNQFSLKLSSVTAADTAVYYCARYGRVFFDYWGQGTLVTVSS VL: DIVMTQSPLSLPVTPGEPASISCRSSQSHVHSNGNTYLQWYLQKPGQSPQLLIYKVSNRLYGVPDRFSGSGSGTDFTLKISRVEAEDVGVYYCFQGSHVPWTFGQGTKVEIK
